Reference: US20220348651A1 (Novartis, published 2022)
Where a chain is given by its changes, count along the chain named. Each block holds one binder with its values, some of them ahead of it.

Key:
[1] = molecular target: T1, Human ENTPD1 (NP_001767) expressed on NIH/3T3 cells (human, UniProt P49961 1-510); experiment: flow cytometry, NIH/3T3-ENTPD1 cells
T1 construct: also called NIH/3T3-ENTPD1; CD39
T1 sequence: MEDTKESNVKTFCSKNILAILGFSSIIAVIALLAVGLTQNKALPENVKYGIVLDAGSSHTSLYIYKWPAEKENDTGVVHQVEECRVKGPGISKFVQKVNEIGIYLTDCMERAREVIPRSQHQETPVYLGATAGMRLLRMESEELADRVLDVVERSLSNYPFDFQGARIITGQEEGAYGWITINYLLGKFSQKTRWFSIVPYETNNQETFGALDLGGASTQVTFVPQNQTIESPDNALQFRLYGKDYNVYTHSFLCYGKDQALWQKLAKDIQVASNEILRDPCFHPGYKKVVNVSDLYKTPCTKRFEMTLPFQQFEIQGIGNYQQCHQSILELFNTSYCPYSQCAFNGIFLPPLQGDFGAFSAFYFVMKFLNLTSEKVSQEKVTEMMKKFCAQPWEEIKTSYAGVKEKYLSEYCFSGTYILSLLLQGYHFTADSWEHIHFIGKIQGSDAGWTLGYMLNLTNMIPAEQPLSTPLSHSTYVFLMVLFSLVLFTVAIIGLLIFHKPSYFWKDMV

[2] = molecular target: T2, cyno ENTPD2 expressed on NIH/3T3 cells (cynomolgus macaque, UniProt Q9Y5L3 1-495 (human entry)); experiment: cell-based or functional assay
T2 chain: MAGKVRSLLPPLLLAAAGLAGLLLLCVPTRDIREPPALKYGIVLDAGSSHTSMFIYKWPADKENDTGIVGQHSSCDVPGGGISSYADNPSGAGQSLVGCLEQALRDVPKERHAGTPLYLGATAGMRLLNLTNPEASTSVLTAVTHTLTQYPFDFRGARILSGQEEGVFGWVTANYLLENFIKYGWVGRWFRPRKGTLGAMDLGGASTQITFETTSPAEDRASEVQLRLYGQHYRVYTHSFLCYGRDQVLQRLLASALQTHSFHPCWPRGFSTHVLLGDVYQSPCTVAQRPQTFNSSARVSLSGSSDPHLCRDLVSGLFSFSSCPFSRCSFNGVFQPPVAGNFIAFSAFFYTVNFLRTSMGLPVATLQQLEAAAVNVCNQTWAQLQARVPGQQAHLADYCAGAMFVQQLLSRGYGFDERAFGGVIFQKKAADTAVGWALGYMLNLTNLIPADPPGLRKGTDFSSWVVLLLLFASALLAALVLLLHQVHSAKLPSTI

[3] = molecular target: T3, human ENTPD2 expressed on cells (human, UniProt Q9Y5L3 1-495); experiment: cell-based or functional assay
T3 sequence: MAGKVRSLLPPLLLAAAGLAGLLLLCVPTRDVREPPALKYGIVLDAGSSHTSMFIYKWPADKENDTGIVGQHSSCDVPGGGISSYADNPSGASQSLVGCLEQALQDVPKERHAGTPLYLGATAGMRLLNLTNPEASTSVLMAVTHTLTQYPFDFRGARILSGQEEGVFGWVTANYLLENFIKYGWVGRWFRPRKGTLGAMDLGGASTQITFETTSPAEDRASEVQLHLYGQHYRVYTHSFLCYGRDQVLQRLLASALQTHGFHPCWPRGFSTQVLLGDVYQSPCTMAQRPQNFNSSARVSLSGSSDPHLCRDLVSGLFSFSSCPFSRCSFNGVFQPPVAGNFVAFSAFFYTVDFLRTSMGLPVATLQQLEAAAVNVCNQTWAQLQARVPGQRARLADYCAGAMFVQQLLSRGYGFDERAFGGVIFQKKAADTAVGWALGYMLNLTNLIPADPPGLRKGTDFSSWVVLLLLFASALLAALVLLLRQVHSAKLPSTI

[4] = molecular target: T4, ENTPD8 of H520 cells (UniProt Q5MY95 1-495, limits assumed); experiment: flow cytometry, H520 cells
T4 construct: whole, on cells
T4 sequence (looked up): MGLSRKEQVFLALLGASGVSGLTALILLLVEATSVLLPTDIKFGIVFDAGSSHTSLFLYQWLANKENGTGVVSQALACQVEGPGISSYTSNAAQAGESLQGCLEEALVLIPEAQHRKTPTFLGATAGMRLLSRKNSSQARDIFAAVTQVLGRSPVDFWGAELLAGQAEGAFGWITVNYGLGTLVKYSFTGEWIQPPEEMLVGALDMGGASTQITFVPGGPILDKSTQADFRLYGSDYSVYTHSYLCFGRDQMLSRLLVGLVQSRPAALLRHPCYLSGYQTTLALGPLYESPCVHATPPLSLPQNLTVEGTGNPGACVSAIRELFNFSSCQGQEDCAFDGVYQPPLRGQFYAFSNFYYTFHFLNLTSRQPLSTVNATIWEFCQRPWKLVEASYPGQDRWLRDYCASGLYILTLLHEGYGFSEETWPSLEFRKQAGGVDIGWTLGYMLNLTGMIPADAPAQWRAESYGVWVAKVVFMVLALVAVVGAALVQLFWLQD

[5] = molecular target: T5, ENTPD3 of H520 cells (UniProt O75355 1-529, limits assumed); experiment: flow cytometry, H520 cells
T5 construct: whole, on cells
T5 sequence (looked up): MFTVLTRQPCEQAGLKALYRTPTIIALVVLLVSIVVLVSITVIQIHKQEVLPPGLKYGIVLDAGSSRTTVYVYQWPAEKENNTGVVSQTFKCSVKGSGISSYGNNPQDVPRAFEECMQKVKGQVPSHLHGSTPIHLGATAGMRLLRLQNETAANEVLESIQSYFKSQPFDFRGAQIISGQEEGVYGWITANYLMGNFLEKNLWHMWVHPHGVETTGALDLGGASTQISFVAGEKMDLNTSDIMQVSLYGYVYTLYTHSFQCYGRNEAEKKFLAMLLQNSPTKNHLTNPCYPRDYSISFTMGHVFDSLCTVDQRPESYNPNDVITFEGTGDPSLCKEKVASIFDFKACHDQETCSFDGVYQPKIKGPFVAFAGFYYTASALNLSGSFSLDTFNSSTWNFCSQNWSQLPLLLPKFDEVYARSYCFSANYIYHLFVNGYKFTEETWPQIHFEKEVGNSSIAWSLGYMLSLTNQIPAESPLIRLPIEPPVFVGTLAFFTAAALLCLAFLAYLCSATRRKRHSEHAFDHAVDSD

binding result [1]: no binding (tested: 50 nM)
% inhibition, Cyno ENTPD2 NIH/3T3 Assay [2]: 71%
IC50, Cyno ENTPD2 NIH/3T3 Assay [2]: 0.3 nM
% inhibition, Human ENTPD2 NIH/3T3 Assay [3]: 92%
% inhibition, RKO Assay [3]: 70%
IC50, Human ENTPD2 NIH/3T3 Assay [3]: 0.3 nM
IC50, RKO Assay [3]: 0.1 nM
binding result [4]: no binding (tested: 50 nM)
binding result [5]: no binding (tested: 50 nM)
B1: ANTI-HUMAN ENTPD2 MAB9 (antibody, human IgG1, lambda, V domains shown)
VH: QVQLVQSGAEVKKPGSSVKVSCKASGGTFDSYAVSWVRQAPGQGLEWMGRIVPWLGHTQYAQKFQGRVTITADESTSTAYMELSSLRSEDTAVYYCARESPGYRYSFDVWDQGTLVTVSS
VL: SYELTQPLSVSVALGQTARITCSGDAIGEKYVYWYQQKPGQAPVLVIYDDNNRPSGIPERFSGSNSGNTATLTISRAQAGDEADYYCASYDLQQARWVFGGGTKLTVLG
notes: also called Anti-ENTPD2 mAb9

binding result [1]: no binding (tested: 50 nM)
% inhibition, Cyno ENTPD2 NIH/3T3 Assay [2]: 86%
IC50, Cyno ENTPD2 NIH/3T3 Assay [2]: 0.5 nM
% inhibition, Human ENTPD2 NIH/3T3 Assay [3]: 88%
% inhibition, RKO Assay [3]: 77%
IC50, Human ENTPD2 NIH/3T3 Assay [3]: 0.4 nM
IC50, RKO Assay [3]: 0.2 nM
binding result [4]: no binding (tested: 50 nM)
binding result [5]: no binding (tested: 50 nM)
B2: ANTI-HUMAN ENTPD2 MAB10 (antibody, human IgG1, lambda, V domains shown)
VH: B1 VH with H57F, Q59R
VL: B1 VL
notes: also called Anti-ENTPD2 mAb10
